{"source": "paper doi:10.1101/2019.12.17.878660", "about": "(bioRxiv, 2019)", "target": "T1, SurA (E. coli, UniProt P0ABZ6 21-428)", "T1 sequence": "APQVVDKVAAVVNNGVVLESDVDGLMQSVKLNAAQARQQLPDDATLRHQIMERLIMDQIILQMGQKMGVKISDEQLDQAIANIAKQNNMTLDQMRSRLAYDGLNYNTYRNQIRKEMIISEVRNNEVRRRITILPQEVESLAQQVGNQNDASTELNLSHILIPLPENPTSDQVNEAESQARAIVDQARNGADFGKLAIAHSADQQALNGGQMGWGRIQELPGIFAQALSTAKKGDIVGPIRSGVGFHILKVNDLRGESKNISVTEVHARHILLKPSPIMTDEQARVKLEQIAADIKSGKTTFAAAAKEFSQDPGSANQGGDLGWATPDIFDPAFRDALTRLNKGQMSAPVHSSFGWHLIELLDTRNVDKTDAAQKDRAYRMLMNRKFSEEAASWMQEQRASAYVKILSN", "assay": "cross-linking"}
{"binder": "uOmpX (natural protein, E. coli, UniProt P0A917 24-171, looked up) ATSTVTGGYAQSDAQGQMNKMGGFNLKYRYEEDNSPLGVIGSFTYTEKSRTASSGDYNKNQYYGITAGPAYRINDWASIYGVVGVGYGKFQTTEYPTYKHDTSDYGFSYGAGLQFNPMENVALDFSYEQSRIRSVDVGTWIAGVGYRF", "values": [{"measurement": "binding result", "result": "binds"}]}
